Here are results for 1 substance from paper PMC11315690.

pKd: −log10 of the molar value.

This assay addresses N-terminal structural domain of human Nogo-B protein (hNogo-B-N), residues 1-185, with human Fc fragment (human) (UniProt Q9NQC3). Kind of assay: SPR. A general note: In SPR one partner is held on a chip, and binding of the other changes the refractive index at the surface.
Sequence of UniProt Q9NQC3 (Q9NQC3 1-185): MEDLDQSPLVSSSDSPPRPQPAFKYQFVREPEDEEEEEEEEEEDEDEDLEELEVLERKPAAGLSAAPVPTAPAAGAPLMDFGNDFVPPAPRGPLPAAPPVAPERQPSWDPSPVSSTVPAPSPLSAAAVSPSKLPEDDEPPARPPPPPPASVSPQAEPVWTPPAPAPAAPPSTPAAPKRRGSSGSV

On to “human proGCG protein (hproGCG) with C-terminal Strep-tag II (natural protein)”, for which the negative logarithm of the Kd (pKd) is 5.86.

By pKd is commonly meant the Kd on a negative log10 scale, so that one unit is a factor of ten. The low end stands for a large Kd, the high end for a small Kd.
